Consider 5 molecules from PMC12646667, “Defective Notch1 signaling in endothelial cells drives pathogenesis in a mouse model of Adams-Oliver syndrome” (The Journal of Clinical Investigation, 2025).

Several values for one entry are separate records, joined by “and”; a condition that tells them apart may be missing. Identical values can stand only once.

The target in data set [1] is T1, mouse RBPJ F92V, conserved core (residues 53-474) (mouse, UniProt P31266 53-474, F92V).
T1 construct: RBPJ (Rbpj), mouse, conserved core, residues 53-474, with F92V; Variant found in human AOS patients (human F66V), put into the mouse protein by mutagenesis; also called analogous to human F66V; source: pGEX-6P-1 plasmid, QuikChange mutagenesis
T1 sequence (P31266 53-474 F92V): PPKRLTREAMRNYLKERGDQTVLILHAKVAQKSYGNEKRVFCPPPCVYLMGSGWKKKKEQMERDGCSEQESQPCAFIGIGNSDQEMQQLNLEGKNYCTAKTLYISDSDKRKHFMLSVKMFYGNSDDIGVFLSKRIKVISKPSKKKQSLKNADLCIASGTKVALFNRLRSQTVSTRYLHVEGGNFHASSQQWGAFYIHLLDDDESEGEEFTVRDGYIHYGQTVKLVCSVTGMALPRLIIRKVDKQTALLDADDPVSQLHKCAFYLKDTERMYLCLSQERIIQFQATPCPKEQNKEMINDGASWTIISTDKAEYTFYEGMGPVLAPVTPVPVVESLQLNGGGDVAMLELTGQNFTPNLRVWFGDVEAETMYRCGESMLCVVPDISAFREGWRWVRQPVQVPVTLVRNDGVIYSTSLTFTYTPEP
The experiment in a line: ITC; MicroCal VP-ITC, 25 °C, 50 mM sodium phosphate pH 6.5, 150 mM NaCl; ligand (RAM peptide or SMT3-SHARP) in the syringe, RBPJ in the cell: 100 µM into 10 µM (R91G), 50 µM into 5 µM (F92V), 40 µM into 4 µM (S358R); 20 injections of 14 µL; 1-site binding model; mean and SD of triplicates. As to conditions: both partners purified. Background: ITC needs no label: the signal is the heat of the interaction.

Data set [2] addresses T2, mouse RBPJ S358R, conserved core (residues 53-474) (mouse, UniProt P31266 53-474, S358R).
T2 construct: RBPJ (Rbpj), mouse, conserved core, residues 53-474, with S358R; Variant found in human AOS patients (human S332R), put into the mouse protein by mutagenesis; also called analogous to human S332R; source: pGEX-6P-1 plasmid, QuikChange mutagenesis
The data set is described as above. As to conditions: both partners purified.

The target in data set [3] is T3, RBPJ 53-474, S358R (mouse, UniProt P31266 53-474, S358R).
T3 construct: RBPJ, mouse, conserved core, residues 53-474, with S358R (analogous to the human AOS variant S332R); AOS-associated human variant placed in the mouse protein; also called RBPJ^S358R (human S332R)
T3 sequence (P31266 53-474 S358R): as the sequence (P31266 53-474 F92V) above, with V40F, S306R counted along it
The experiment in a line: ITC; MicroCal VP-ITC; NOTCH1 peptide or SMT3-SHARP in the syringe (40-100 uM), RBPJ in the cell (4-10 uM); 25 C (298 K); 50 mM sodium phosphate pH 6.5, 150 mM NaCl; 20 injections of 14 uL; 1-site binding model; each of three replicates printed on its own. The following applies: both partners purified.

In data set [4] the target is T4, RBPJ 53-474 (WT mouse RBPJ, conserved core) (mouse, UniProt P31266 53-474).
T4 construct: RBPJ, mouse, conserved core (NTD, BTD, linker, CTD), residues 53-474; PDB 3BRG (RBPJ on DNA) was used for modelling only; also called WT RBPJ
T4 sequence (P31266 53-474): as the sequence (P31266 53-474 F92V) above, with V40F counted along it
Described as above. The following applies: both partners purified.

The target in data set [5] is T5, RBPJ 53-474, F92V (mouse, UniProt P31266 53-474, F92V).
T5 construct: RBPJ, mouse, conserved core, residues 53-474, with F92V (analogous to the human AOS variant F66V); AOS-associated human variant placed in the mouse protein; also called RBPJ^F92V (human F66V)
T5 sequence (P31266 53-474 F92V): as the sequence (P31266 53-474 F92V) above
The description is as above. The following applies: both partners purified.

For data set [6], the target named is T6, RBPJ 53-474, E89G (mouse, UniProt P31266 53-474, E89G).
T6 construct: RBPJ, mouse, conserved core, residues 53-474, with E89G (analogous to the human AOS variant E63G); AOS-associated human variant placed in the mouse protein; also called RBPJ^E89G (human E63G)
T6 sequence (P31266 53-474 E89G): as the sequence (P31266 53-474 F92V) above, with E37G, V40F counted along it
The description is as above. The following applies: both partners purified.

Data set [7] has as its target T7, RBPJ 53-474, K195E (mouse, UniProt P31266 53-474, K195E).
T7 construct: RBPJ, mouse, conserved core, residues 53-474, with K195E (analogous to the human AOS variant K169E); AOS-associated human variant placed in the mouse protein; also called RBPJ^K195E (human K169E)
The data set is described as above. The following applies: both partners purified.

For data set [8], the target named is T8, mouse RBPJ R91G, conserved core (residues 53-474) (mouse, UniProt P31266 53-474, R91G).
T8 construct: RBPJ (Rbpj), mouse, conserved core, residues 53-474, with R91G; Variant found in human AOS patients (human R65G), put into the mouse protein by mutagenesis; also called analogous to human R65G; source: pGEX-6P-1 plasmid, QuikChange mutagenesis
T8 sequence (P31266 53-474 R91G): as the sequence (P31266 53-474 F92V) above, with R39G, V40F counted along it
Nature of the data set: ITC; MicroCal VP-ITC, 25 °C, 50 mM sodium phosphate pH 6.5, 150 mM NaCl; ligand (RAM peptide or SMT3-SHARP) in the syringe, RBPJ in the cell: 100 µM into 10 µM (R91G), 50 µM into 5 µM (F92V), 40 µM into 4 µM (S358R); 20 injections of 14 µL; 1-site binding model; mean and SD of triplicates. The following applies: both partners purified.

Data set [9] concerns the target T3, RBPJ 53-474, S358R. Nature of the data set: ITC; MicroCal VP-ITC; NOTCH1 peptide or SMT3-SHARP in the syringe (40-100 uM), RBPJ in the cell (4-10 uM); 25 C (298 K); 50 mM sodium phosphate pH 6.5, 150 mM NaCl; 20 injections of 14 uL; 1-site binding model; each of three replicates printed on its own. As to conditions: both partners purified. The source holds these as a separate data set.

For data set [10], the target named is T4, RBPJ 53-474 (WT mouse RBPJ, conserved …). The data set is described as above. The following applies: both partners purified. The source holds these as a separate data set.
The target of data set [11] is T9, RBPJ 53-474, R91G (mouse, UniProt P31266 53-474, R91G).
T9 construct: RBPJ, mouse, conserved core, residues 53-474, with R91G (analogous to the human AOS variant R65G); AOS-associated human variant placed in the mouse protein; also called RBPJ^R91G (human R65G)
T9 sequence (P31266 53-474 R91G): as the sequence (P31266 53-474 F92V) above, with R39G, V40F counted along it
The data set is described as above. The following applies: both partners purified.

In data set [12] the target is T5, RBPJ 53-474, F92V. Described as above. The following applies: both partners purified. The source holds these as a separate data set.
For data set [13], the target named is T6, RBPJ 53-474, E89G. Described as above. As to conditions: both partners purified. This is another data set of the same source.
In data set [14] the target is T7, RBPJ 53-474, K195E. The description is as above. As to conditions: both partners purified. The source holds these as a separate data set.
Data set [15] concerns the target RBPJ R91G (Mus musculus, UniProt P31266 53-474, R91G). The experiment in a line: EMSA; 5, 25, 125 nM protein; ITC: 50 mM sodium phosphate pH 6.5, 150 mM NaCl, 10 C, DNA 100 uM in syringe, protein 10 uM in cell; EMSA: 20 min at room temperature, buffer as previously described (not given). As to conditions: protein: recombinant; tags: GST-fusion vector pGEX-6P-1; label: 5' IRDye-700 on bottom strand; blunt; S3 primer annealed to S2 and filled in with DNA polymerase I.

T7 sequence (P31266 53-474 K195E): as the sequence (P31266 53-474 F92V) above, with V40F, K143E counted along it
T2 sequence (P31266 53-474 S358R): as the sequence (P31266 53-474 F92V) above, with V40F, S306R counted along it
Chain of RBPJ R91G (P31266 53-474 R91G): as the sequence (P31266 53-474 F92V) above, with R39G, V40F counted along it

B1: SMT3-SHARP 2776-2833, fusion protein with the region of the human SHARP co-repressor that binds RBPJ (domain or fragment, UniProt Q96T58 2776-2833, looked up)
chain: RASANENSRFHPGSMPVIDDRPADAGSGAGLRVNTSEGVVLLSYSGQKTEGPQRISAK
notes: SHARP (SPEN), human, residues 2776-2833; not shown: SMT3, N-terminal, kept
On to B1, for which the results for the Kd in data set [1] and in [2] were 10.3 nM and 7.9 nM, respectively.

B2: SMT3-MINT 2776-2833 (human SHARP residues 2776-2833 with N-terminal SMT3 and His tag) (domain or fragment, UniProt Q96T58 2776-2833, looked up)
chain: B1 chain
notes: SHARP (MINT), human, residues 2776-2833; not shown: SMT3, N-terminal, kept
As for B2, the Ka is 9.83e+07 M⁻¹ and 1.28e+08 M⁻¹ and 1.73e+08 M⁻¹ in [3]; 8.9e+07 M⁻¹ (2×) and 1.2e+08 M⁻¹ in data set [5]. The Kd is 10 nM and 7.8 nM and 6 nM in [3]; 11 nM and 11.3 nM and 9 nM in data set [5]; 12 nM and 35 nM and 17 nM in [7]. Moreover, the “stoichiometry N” value is 0.89 and 1.02 and 1.08 in data set [3]; 1.2 and 1 and 1.06 in [4]; 1.17 and 1.09 and 1.12 in data set [5]; 1.37 and 1.34 and 1.15 in data set [6]; 0.94 and 0.84 and 0.95 in data set [7].

B3: RBPJ association module (RAM) domain peptide of the human Notch1 intracellular domain, residues 1754-1781 (peptide)
peptide: VLLSRKRRRQHGQLWFPEGFKVSEASKK
notes: NOTCH1, human, RAM domain of the intracellular domain, residues 1754-1781; also called NICD; NICD1; source: synthetic peptide
As to B3, the Kd in data set [8] was found to be 21.4 nM; in [1], 11.5 nM; in data set [2], 13.3 nM.

B4: human NOTCH1 peptide consisting of residues 1754-1781 (peptide, UniProt P46531 1754-1781, looked up)
peptide: VLLSRKRRRQHGQLWFPEGFKVSEASKK
notes: NOTCH1, human, RAM region, residues 1754-1781; also called hN1 RAM 1754-1781; NICD1
Regarding B4, the “stoichiometry N” value in data set [9] is 0.86 and 0.72 and 0.77; in [10] it was 1.21 and 1.2 and 1.14; in data set [11], 1.06 and 1.03 and 0.92; in [12] it was 0.85 and 0.75 and 0.63; in data set [13] it was 0.84 and 0.73 and 1.32; in data set [14], 1.33 and 1.2 and 1.23. The Ka is 5e+07 M⁻¹ (2×) and 4.4e+07 M⁻¹ in [10]; 6.04e+07 M⁻¹ and 6.65e+07 M⁻¹ and 3.08e+07 M⁻¹ in data set [11]; 1.42e+08 M⁻¹ and 1.04e+08 M⁻¹ and 5.61e+07 M⁻¹ in data set [12]; 6.24e+07 M⁻¹ and 7.22e+07 M⁻¹ and 3.37e+07 M⁻¹ in data set [13]; 7.46e+07 M⁻¹ and 3.08e+07 M⁻¹ and 4.69e+07 M⁻¹ in data set [14]. The equilibrium dissociation constant (Kd) in [10] is 20 nM and 22 nM; in data set [11] it was 17 nM and 15 nM and 32 nM; in [12] it was 7 nM and 10 nM and 18 nM; in data set [13], 16 nM and 14 nM and 30 nM; in [14], 13 nM and 32 nM and 21 nM.

B5: EMSA probe 1xCSL (1016ic) (dsDNA)
DNA 1: CGAACGAGGCAAACCTAGGCTAGAGGCACCGTGGGAAACTAGTGCGGGCGTGGCT
DNA 2: AGCCACGCCCGCACTAGTTTCCCACGGTGCCTCTAGCCTAGGTTTGCCTCGTTCG
B5: the binding result in data set [15] is “no binding”.

For orientation: Kd means the free concentration of one partner at which half of the binding sites on the other are occupied at equilibrium, for simple one-to-one binding. A high value points to weaker binding. By stoichiometry N is commonly meant a count of units in the complex or per binding partner.
